# Test results from PMC4833381.
# Tests used:
# [1] = biological target: HCMV gB of HCMV BADrUL131 (infected cells and extracellular virions) (human cytomegalovirus, BADrUL131) (UniProt P06473); assay: co-IP
# [2] = biological target: HCMV UL130 of HCMV BADrUL131 (extracellular virions) (human cytomegalovirus, BADrUL131) (UniProt P16772); assay: co-IP
# [3] = biological target: HCMV gL of HCMV BADrUL131 (extracellular virions) (human cytomegalovirus, BADrUL131) (UniProt P16832); assay: co-IP
# [4] = biological target: HCMV gB of HCMV BADrUL131 (infected cells and extracellular virions) (human cytomegalovirus, BADrUL131) (UniProt P06473); assay: co-IP; IP-western, repeat with an additional BADrUL131 virion preparation solubilized in 1% NP-40; IP with anti-gB MAb 15H7; gH signal read beside a linear range of gH/gL lysate (Image Studio, Licor)
# [5] = biological target: HCMV gB of clinical strain TR (extracellular virions) (human cytomegalovirus, strain TR); assay: co-IP; IP-western: extracellular virions of HCMV clinical strain TR solubilized in 1% NP-40; IP with anti-gB MAb 15H7; gH signal read beside a linear range of gH/gL lysate (Image Studio, Licor)
# [6] = biological target: HCMV glycoprotein gH, strain TR (Ad vector) (human cytomegalovirus, strain TR); assay: co-IP; IP-western: MRC-5 fibroblasts transduced with Ad vectors, 1% NP-40 lysates; IP with anti-gH MAb 14-4b; blot with anti-gB rabbit serum; percent against 5% input
# [7] = biological target: HCMV glycoprotein gH, strain TR (Ad vector) (human cytomegalovirus, strain TR); assay: co-IP; pulse-chase: Ad-transduced ARPE-19 cells labeled 15 min with 35S-methionine/cysteine, chased 60, 120 or 240 min; 1% NP-40 extracts; IP with anti-gH MAb 14-4b; SDS-PAGE under reducing conditions
# [8] = biological target: HCMV glycoprotein gH, strain TR (Ad vector) (human cytomegalovirus, strain TR); assay: co-IP; IP-western: ARPE-19 cells transduced with Ad vectors, 1% NP-40 lysates; IP with anti-gH MAb 14-4b, anti-gB MAbs 9C1, 13H10, 15H7 or anti-FLAG MAb; protein-A agarose; blots for gB, gH, HSV-1 gH or HSV-1 gD; percent against 5% input (ImageJ)
# [9] = biological target: HCMV gB with a C-terminal FLAG epitope tag (Ad vector) (human cytomegalovirus) (UniProt P06473); assay: as above
# [10] = biological target: HCMV glycoprotein gB, lab strain AD169 (Ad vector) (human cytomegalovirus, strain AD169) (UniProt P06473); assay: as above
# UniProt P16832, sequence (P16832 31-278): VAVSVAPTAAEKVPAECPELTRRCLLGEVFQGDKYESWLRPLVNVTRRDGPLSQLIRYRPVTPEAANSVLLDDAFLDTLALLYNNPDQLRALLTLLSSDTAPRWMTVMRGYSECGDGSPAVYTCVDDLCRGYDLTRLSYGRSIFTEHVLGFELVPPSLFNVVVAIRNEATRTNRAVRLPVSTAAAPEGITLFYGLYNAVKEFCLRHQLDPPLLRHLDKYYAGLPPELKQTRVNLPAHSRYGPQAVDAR
substance,measurement,setting,value
HCMV UL130 of HCMV BADrUL131 (extracellular virions) (from UniProt P16772) (natural protein),percent of the total co-IP'd with gB,[1],2.5%
HCMV gB of HCMV BADrUL131 (infected cells and extracellular virions) (from UniProt P06473 32-906) (natural protein),percent of the total gB precipitated with anti-UL130 serum,[2],1%
HCMV gH of HCMV BADrUL131 (infected cells and extracellular virions) (from UniProt P12824 24-743) (natural protein),percent of the total gH/gL precipitated with anti-UL130 serum,[2],24%
same,percent of the total gH/gL co-IP'd with gB,[1],50%
same,percent of the total gH IP'd with gL antibodies,[3],8%
same,percent of the total gH co-IP'd with gB,[4],21%
HCMV gH of clinical strain TR (extracellular virions) (natural protein),percent of the total gH co-IP'd with gB,[5],16%
HCMV gO of HCMV BADrUL131 (extracellular virions) (from UniProt P16750 31-466) (natural protein),percent of the total co-IP'd with gB,[1],1%
"HCMV glycoprotein gB, lab strain AD169 (Ad vector) (from UniProt P06473 32-906) (natural protein)",percent of the total gB co-IP'd with gH/gL,[6],13%
same,"gB complexed with gH/gL, percent of the gH/gL precipitated (pulse sample)",[7],38%
same,percent of the total gB co-IP'd with gH/gL,[8],16.5%
"HCMV glycoprotein gH, strain TR (Ad vector) (natural protein)",percent of gH/gL co-IP'd with gB MAbs or anti-FLAG MAbs,[9],1 to 6%
same,percent of gH/gL co-IP'd with gB MAbs or anti-FLAG MAbs,[10],1 to 6%
